From patent US20090217400 come the findings set out here.

Positions count from the first letter of the chain named.

This data set addresses T1, wild type Cre recombinase, P06956.
T1 chain: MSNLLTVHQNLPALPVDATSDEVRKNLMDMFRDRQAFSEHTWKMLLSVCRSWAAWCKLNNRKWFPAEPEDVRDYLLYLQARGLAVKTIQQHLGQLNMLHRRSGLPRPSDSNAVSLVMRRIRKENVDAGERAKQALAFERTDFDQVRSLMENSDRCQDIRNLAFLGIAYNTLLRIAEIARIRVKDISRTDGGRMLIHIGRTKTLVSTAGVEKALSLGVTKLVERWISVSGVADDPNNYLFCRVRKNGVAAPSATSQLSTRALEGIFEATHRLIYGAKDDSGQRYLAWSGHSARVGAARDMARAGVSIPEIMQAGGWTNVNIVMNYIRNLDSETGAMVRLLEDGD

B1: Cre mutant CM2 [C2(+/-)#4] (protein)
chain: T1 chain with I174A, T258L, R259S, E262H, E266G
With B1, the “catalytic efficiency of recombination of the asymmetric loxP-M7 substrate (wt Cre-CM2 mixture compared with CM1)” value was “both the wt Cre-CM2 mixture and CM1 demonstrated comparable catalytic efficiency”; the “recombination extent after 30 min (loxP-M7 substrate, wt Cre-CM2 mixture, 30 nM enzyme)” value was “approximately 20% after 30 min”; the “recombination extent after 90 min (loxP-M7 substrate, wt Cre-CM2 mixture, 30 nM enzyme)” value is 25-30% after 90 min; the “recombination rate (observed rate constant, loxP-M7 substrate, wt Cre-CM2 mixture, 30 nM enzyme)” value was 0.034 and 0.048 min-1, respectively. In addition, the “substrate recombination in 1 h (in vitro recombination of loxP-M7 DNA substrate, equal wt Cre-CM2 mixture at 30 nM and 60 nM total enzyme)” value is listed as “approximately 35% substrate recombination in 1 h”.
